Results: US20200377597A1 (SUNSHINE GUOJIAN PHARMACEUTICAL SHANGHAI CO LT, published 2020)

T1: ICOS-hFc (UniProt Q9Y6W8 21-141)
T1 construct: Bought reagent; construct not described; not shown: hFc of a bought product
T1 sequence (looked up): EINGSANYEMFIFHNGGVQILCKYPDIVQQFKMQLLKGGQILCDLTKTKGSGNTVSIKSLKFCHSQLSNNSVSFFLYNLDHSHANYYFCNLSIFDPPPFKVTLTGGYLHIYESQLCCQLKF


How the values were obtained:
[1] = target: T2, monovalent human PD-1 (purchased from Sino Biological Inc.) (human, UniProt Q15116 25-167); assay: SPR Biacore T200; antibody captured on Protein A/G, monovalent human PD-1 as analyte
T2 construct: Bought reagent
Text: The first method was as follows: A CM5 sensor chip (GE healthcare) was activated by the Amine Coupling Kit (GE healthcare) and the Protein A/G fusion protein (Thermo Pierce) was immobilized on the chip with an amount of 2000 RU. FC3 (Flow cell 3) was a reference channel, and FC4 (Flow cell 4) was a sample channel.

human PD-1 = human PD-1 (human, UniProt Q15116 25-288); assay: cell-based or functional assay
human PD-1-hFc = target: T3, human PD-1-hFc (human, UniProt Q15116 25-170, biotin-labelled with EZ-Link Sulfo-NHS-Biotin in the second SPR method); assay: SPR Biacore T200; biotinylated PD-1-hFc on SA chip, antibody as analyte
T3 construct: extracellular domain; also called PD-1-hFc antigen; PD-1-hFc fusion protein; not shown: Fc region of human IgG1
Procedure: The second determination method was as follows: PD-1-hFc in Example 1 was biotin-labelled using EZ-Link™ Sulfo-NHS-Biotin (Thermo Fisher Scientific), and the specific operation was carried out according to the instructions provided by the manufacturer. After labeling, the excess biotin labeling reagent was removed by dialysis; the aforementioned biotinylated PD-1-hFc fusion protein was immobilized on a chip using Sensor chip SA (GE healthcare). FC3 (Flow cell 3) was a reference channel, and FC4 (Flow cell 4) was a sample channel.

ICOS-hFc = target: T1, ICOS-hFc; assay: ELISA, plate coated with ICOS-hFc at 2 ug/ml, detection with HRP goat anti-human Fab, OD450
Procedure: (§1) The protein molecules such as CD28, CTLA-4, and ICOS belong to the same family as PD-1, and the sequences have homology. […] Each well was added with 200 μl of coating solution containing 1% BSA, and blocked at room temperature for 4 hours, then patted dry, and stored in a refrigerator at -20° C. until use. […] 100 μl of HRP-labeled goat anti-human Fab antibody (purchased from Sigma) diluted 1:5000 with PBST was added and incubated at room temperature for 1 hour; washed 3 times with PBST and patted dry. 100 μl of chromogenic solution (ELISA chromogenic solution A and chromogenic solution B were mixed in a volume ratio of 1:1 before use) was added to each well, then 100 μl of 2M H₂SO₄ stop solution was added to each well to stop the reaction. The OD value of each well was immediately measured at a wavelength of 450 nm using a microplate reader (Molecular Device).

CD28-hFc = target: T4, CD28-hFc (UniProt P10747 19-152); assay: ELISA, plate coated with CD28-hFc at 2 ug/ml, detection with HRP goat anti-human Fab, OD450
T4 construct: Bought reagent; construct not described; not shown: hFc of a bought product
Procedure: as §1

T2 sequence (Q15116 25-167 limits assumed): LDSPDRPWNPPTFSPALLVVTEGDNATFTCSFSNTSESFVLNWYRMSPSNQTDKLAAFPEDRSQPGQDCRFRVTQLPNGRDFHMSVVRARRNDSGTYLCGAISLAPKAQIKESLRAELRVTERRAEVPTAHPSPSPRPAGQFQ
T3 sequence (Q15116 25-170): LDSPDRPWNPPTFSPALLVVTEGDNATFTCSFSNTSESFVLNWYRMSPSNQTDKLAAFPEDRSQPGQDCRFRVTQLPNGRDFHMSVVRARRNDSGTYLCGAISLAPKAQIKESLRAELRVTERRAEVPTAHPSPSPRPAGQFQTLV
Sequence of human PD-1 (Q15116 25-288): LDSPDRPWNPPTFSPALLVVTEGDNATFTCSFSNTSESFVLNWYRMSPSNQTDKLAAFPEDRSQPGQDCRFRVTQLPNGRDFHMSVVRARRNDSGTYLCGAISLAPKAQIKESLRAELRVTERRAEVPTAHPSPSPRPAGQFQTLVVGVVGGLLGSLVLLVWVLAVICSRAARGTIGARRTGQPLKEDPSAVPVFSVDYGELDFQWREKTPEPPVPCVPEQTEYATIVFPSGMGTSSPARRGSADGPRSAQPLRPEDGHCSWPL

Binder | Kd [1] [nM] | koff [1] [s⁻¹] | kon [1] [M⁻¹ s⁻¹] | Cell proliferation (FIG. 3), MLR EC50 (human PD-1) [µg/mL] | IFN-γ secretion (FIG. 2), MLR EC50 (human PD-1) [µg/mL] | IL-2 secretion (FIG. 1), MLR EC50 (human PD-1) [µg/mL] | Kd (human PD-1-hFc) [nM] | koff (human PD-1-hFc) [s⁻¹] | kon (human PD-1-hFc) [M⁻¹ s⁻¹] | binding result (ICOS-hFc) | binding result (CD28-hFc)
mAb1-15-Humanized (antibody, human IgG4 S228P, kappa, V domains shown, Human IgG4/Kappa, expressed in HEK293, purified on Protein A; also called humanized antibody No. 1-15) VH: EVQLVESGGGLVQPGGSLRLSCAASGFTFSSYDMSWVRQAPGKRLEWVATISGGGRYTYYPDSVKGRFTISRDNAKNSLYLQMNSLRAEDTAVYYCANRYDVDWFAYWGQGTLVTVSS VL: EIVLTQSPATLSLSPGERATLSCRASQSISNNLHWYQQKPGQAPRLLIKYASQSISGIPARFSGSGSGTDFTLTISSLEPEDFAVYFCQQSNSWPLTFGQGTKVEIKR | 4.28 | 0.000117 | 27300 | 0.0172 | 0.0557 | 0.0165 | 0.0408 | 3.12e-05 | 764000 | – | –
mAb1-25-Humanized (antibody, human IgG4 S228P, kappa, V domains shown, Human IgG4/Kappa, expressed in HEK293E, purified on Protein A; also called humanized antibody No. 1-25) VH: EVKLVESGGGLVQPGGSLRLSCAASGFAFSSYDMSWVRQAPGKRLEWVATISGGGRYTYYPDTVKGRFTISRDNAKNSHYLQMNSLRAEDTAVYFCASPYGGYFDVWGQGTLVTVSS VL: EIVLTQSPATLSLSPGERATLSCRASQSISNFLHWYQQKPGQAPRLLIKYASQSISGIPARFSGSGSGTDFTLTISSLEPEDFAVYFCQQSNSWPHTFGQGTKVEIKR | – | – | – | – | – | – | – | – | – | no binding (tested: log 3.6 (about 4000 ng/ml)) | no binding (tested: log 3.6 (about 4000 ng/ml))

Further binders by falling Kd [1], results first:

Kd [1] [nM] | koff [1] [s⁻¹] | kon [1] [M⁻¹ s⁻¹] | Cell proliferation (FIG. 3), MLR EC50 (human PD-1) [µg/mL] | IFN-γ secretion (FIG. 2), MLR EC50 (human PD-1) [µg/mL] | IL-2 secretion (FIG. 1), MLR EC50 (human PD-1) [µg/mL] | Kd (human PD-1-hFc) [nM] | koff (human PD-1-hFc) [s⁻¹] | kon (human PD-1-hFc) [M⁻¹ s⁻¹] | Binder | binding result (ICOS-hFc) | binding result (CD28-hFc)
2.34 | 0.000148 | 62900 | 0.0146 | 0.0284 | 0.0236 | – | – | – | mAb1-15-Chimeric (antibody, human IgG4 S228P, kappa, V domains shown, Murine variable regions spliced to human IgG4 and Kappa constant regions; expressed in HEK293; also called chimeric antibody of murine antibody No. 1-15) VH: EVNLVESGGGLVKPGGSLKLSCAASGFTFSSYDMSWVRQTPEKRLEWVATISGGGRYTYYPDSVKGRFTISRDNAKNNLYLQMSSLRSEDTALYYCANRYDVDWFAYWGQGTLVTVSA VL: DIVLTQSPATLSVTPGDSVSLSCRASQSISNNLHWYQQKSHESPRLLIKYASQSISGIPSRFSGSGSGTDFTLSINSVETEDFGMYFCQQSNSWPLTFGAGTKLELNR | – | –
0.231 | 4.14e-05 | 179000 | 0.00669 | 0.0254 | 0.00995 | – | – | – | mAb1-25-Chimeric (antibody, human IgG4 S228P, kappa, V domains shown, Murine variable regions spliced to human IgG4 and Kappa constant regions; expressed in HEK293; also called chimeric antibody of murine antibody No. 1-25) VH: EVKLVESGGDLVKPGGSLKLSCVASGFAFSSYDMSWVRQTPEKRLEWVATISGGGRYTYYPDTVKGRFTISRDNARNTHYLQMSSLRSEDTALYFCASPYGGYFDVWGAGTTVTVSS VL: DIVLTQSPATLSVTPGARVSLSCRASQSISNFLHWYQQKSHESPRLLIKYASQSISGIPSRFSGSGSGTDFTLSISSVETEDFGMYFCQQSNSWPHTFGAGTKLELKR | – | –
